# Results published in PMC7666158.
# B1: Sbit-ATF2(19–100), ATF2 TAD wild type (NanoBiT probe) [human] / Lbit-JNK1 (NanoBiT probe) [human] (parent)
# chain 1: MSDDKPFLCTAPGCGQRFTNEDHLAVHKHKHEMTLKFGPARNDSVIVADQTPTPTRFLKNCEEVGLFNELASPFENEFKKAS
# chain 2: MSRSKRDNNFYSVEIGDSTFTVLKRYQNLKPIGSGAQGIVCAAYDAILERNVAIKKLSRPFQNQTHAKRAYRELVLMKCVNHKNIIGLLNVFTPQKSLEEFQDVYIVMELMDANLCQVIQMELDHERMSYLLYQMLCGIKHLHSAGIIHRDLKPSNIVVKSDCTLKILDFGLARTAGTSFMMTPYVVTRYYRAPEVILGMGYKENVDLWSVGCIMGEMVCHKILFPGRDYIDQWNKVIEQLGTPCPEFMKKLQPTVRTYVENRPKYAGYSFEKLFPDVLFPADSEHNKLKASQARDLLSKMLVIDASKRISVDEALQHPYINVWYDPSEAEAPPPKIPDKQLDEREHTIEEWKELIYKEVMDLEERTKNGVIRGQPSPLGAAVINGSQHPSSSSSVNDVSSMSTDPTLASDTDSSLEAAAGPLGCCR
# Variants of: B1
# Assay: NanoBit luciferase complementation in HEK293T cells
# Settings: with Lbit-JNK1 (NanoBiT probe) [human]; anisomycin (30 min); normalized to control (−) = 1.0; read off a plot; scale: relative luminescence intensity
row,response,Variant
1,1,chain 1 K30E
